Source: the supplement of paper PMC10126150
± gives the standard deviation of the averaged measurements.

Each sequence was assayed on ATP (assay: switch fluorescence ratio, 500 uM ATP over buffer (Cy3 cluster intensity, sum of 5 cycles each) (fold (ratio)); higher = stronger signal-on switching upon ATP binding; sequences stand for … in TCGTCGGCAGCGTCAGATGTGTATAAGAGACAGTTTTTTTTTTTTTTTTTTTTTTTTT…TC). Details: aptamer strand: ATP DNA aptamer (quencher-CACCTGGGGGAGTATTGCGGAGGAAGG + anchor), 100 nM annealed; ATP concentration: 500 uM.
Summary of the method: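 For every switch-domain sequence, the fluorescence ratio is the mean of per-cluster values, each being summed target-cycle Cy3 intensity over summed buffer-cycle Cy3 intensity. Clusters outside 100-1000 RFU were excluded. On a modified Illumina MiSeq flow-cell, the Cy3-labelled switching-strand clusters were annealed to 100 nM quencher-labelled ATP aptamer, imaged in selection buffer and then after 15 min with 500 uM ATP at 22 °C. Five such cycles were run, with NaOH stripping and re-annealing between them.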
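Further: ATP exposure 15 min at 22 °C before imaging.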

AAAGATATCT and AAAGATTTTT are within error of each other in switch fluorescence ratio: 0.979 ± 0.022 for the first, 0.9851 ± 0.0092 for the second.

AAAGCCGATG and AAAGCCGGTA are within error of each other in switch fluorescence ratio: 1 ± 0.012 for the first, 1.01 ± 0.084 for the second.

Going from AAAGCGGGTC to AAAGCGGTTA, the switch fluorescence ratio falls from 1.04 ± 0.015 to 1.007 ± 0.006.

Compared with AAAGCGTGCG, AAAGCTGAAT is higher in switch fluorescence ratio: 0.964 ± 0.022 for the first, 0.992 ± 0.0057 for the second.

AAAGCTGTAG and AAAGCTGTTT are the same in switch fluorescence ratio: 1.02 ± 0.038 for the first, 1.02 ± 0.014 for the second.

AAAGGAACTC and AAAGGACACA are within error of each other in switch fluorescence ratio: 0.999 ± 0.092 for the first, 1.061 ± 0.01 for the second.

AAAGGATGTT and AAAGGCCCCC are within error of each other in switch fluorescence ratio: 0.995 ± 0.041 for the first, 1.0047 ± 0.00068 for the second.

Going from AAAGGCGAGG to AAAGGCTGAA, the switch fluorescence ratio rises from 0.957 ± 0.015 to 1.03 ± 0.048.

AAAGGCTGGG and AAAGGGAAAC are within error of each other in switch fluorescence ratio: 1.04 ± 0.087 for the first, 1.2 ± 0.28 for the second.

AAAGGGAAGG and AAAGGGAAGT are within error of each other in switch fluorescence ratio: 1.01 ± 0.018 for the first, 0.983 ± 0.048 for the second.

AAAGGGAAT and AAAGGGCATG are within error of each other in switch fluorescence ratio: 1.02 ± 0.021 for the first, 1 ± 0.011 for the second.

AAAGGGGAGG and AAAGGGGGAA are within error of each other in switch fluorescence ratio: 1.01 ± 0.033 for the first, 0.998 ± 0.026 for the second.

AAAGGGGGT and AAAGGGGGTG are within error of each other in switch fluorescence ratio: 1.01 ± 0.026 for the first, 1.02 ± 0.047 for the second.

First: AAAGGGGTAG
Second: AAAGGGTACT
The switch fluorescence ratio of the first is lower: 0.9975 ± 0.0069 for the first, 1.08 ± 0.064 for the second.

AAAGGGTTGT and AAAGGTGTTG are within error of each other in switch fluorescence ratio: 1.009 ± 0.009 for the first, 1.16 ± 0.23 for the second.

AAAGGTTAAG and AAAGGTTAGG are within error of each other in switch fluorescence ratio: 0.991 ± 0.015 for the first, 0.958 ± 0.029 for the second.

AAAGGTTTCG and AAAGGTTTTG are within error of each other in switch fluorescence ratio: 0.989 ± 0.015 for the first, 1 ± 0.02 for the second.

Going from AAAGTAATGG to AAAGTAGAGG, the switch fluorescence ratio falls from 1.04 ± 0.022 to 0.969 ± 0.029.

AAAGTAGGCT and AAAGTATGCT are within error of each other in switch fluorescence ratio: 1.01 ± 0.053 for the first, 0.9898 ± 0.0015 for the second.

Compared with AAAGTATTAA, AAAGTCAAGG is lower in switch fluorescence ratio: 1.014 ± 0.0026 for the first, 0.9933 ± 0.0029 for the second.

AAAGTCTAGC and AAAGTGAGGG are within error of each other in switch fluorescence ratio: 1.01 ± 0.019 for the first, 0.986 ± 0.013 for the second.

AAAGTGATAT and AAAGTGCTCT are within error of each other in switch fluorescence ratio: 1.01 ± 0.028 for the first, 0.981 ± 0.038 for the second.

AAAGTGTACG and AAAGTTAAGT are within error of each other in switch fluorescence ratio: 0.999 ± 0.03 for the first, 0.976 ± 0.0036 for the second.

AAAGTTAGGG and AAAGTTGCGG are within error of each other in switch fluorescence ratio: 1.01 ± 0.038 for the first, 1.016 ± 0.0045 for the second.

AAAGTTGGAT and AAAGTTTCGC are within error of each other in switch fluorescence ratio: 0.977 ± 0.012 for the first, 1 ± 0.019 for the second.

AAAGTTTGAC and AAATAAAATG are within error of each other in switch fluorescence ratio: 1 ± 0.035 for the first, 0.932 ± 0.11 for the second.

AAATAAAATT and AAATAACTGA are within error of each other in switch fluorescence ratio: 0.982 ± 0.03 for the first, 0.994 ± 0.029 for the second.

Going from AAATAAGTGA to AAATACGGTG, the switch fluorescence ratio rises from 0.979 ± 0.013 to 1.17 ± 0.16.

AAATATACGA and AAATATATGT are within error of each other in switch fluorescence ratio: 1.16 ± 0.15 for the first, 0.997 ± 0.046 for the second.

First: AAATATGGTT
Second: AAATCACGTA
The switch fluorescence ratio of the first is lower: 1.02 ± 0.035 for the first, 1.1818 ± 4.2e-05 for the second.

AAATCGATGT and AAATCGGCTC are within error of each other in switch fluorescence ratio: 1 ± 0.02 for the first, 0.989 ± 0.025 for the second.

AAATCTCATC and AAATGAAGGG are within error of each other in switch fluorescence ratio: 1.03 ± 0.014 for the first, 1 ± 0.058 for the second.

AAATGACGGG and AAATGAGTAG are within error of each other in switch fluorescence ratio: 1.005 ± 0.0076 for the first, 1.02 ± 0.013 for the second.

AAATGAGTTT and AAATGATAAG are within error of each other in switch fluorescence ratio: 1.02 ± 0.013 for the first, 0.998 ± 0.021 for the second.

AAATGCTATA and AAATGCTTCA are within error of each other in switch fluorescence ratio: 1.01 ± 0.022 for the first, 1.03 ± 0.019 for the second.

AAATGCTTTA and AAATGGCCAC are within error of each other in switch fluorescence ratio: 1.03 ± 0.022 for the first, 1.01 ± 0.035 for the second.

AAATGGGACC and AAATGGGCTG are within error of each other in switch fluorescence ratio: 1.012 ± 0.0042 for the first, 1 ± 0.09 for the second.

AAATGGTACT and AAATGGTCT are within error of each other in switch fluorescence ratio: 1.01 ± 0.035 for the first, 1.016 ± 0.01 for the second.

AAATGTAAGG and AAATGTGGAG are within error of each other in switch fluorescence ratio: 0.99 ± 0.034 for the first, 0.984 ± 0.021 for the second.

AAATGTTAAG and AAATGTTTGC are the same in switch fluorescence ratio: 1.01 ± 0.032 for the first, 1.01 ± 0.018 for the second.

AAATTAAGGA and AAATTAATCC are within error of each other in switch fluorescence ratio: 1.01 ± 0.031 for the first, 1.04 ± 0.038 for the second.

AAATTAATTG and AAATTACATT are the same in switch fluorescence ratio: 1.02 ± 0.036 for the first, 1.02 ± 0.021 for the second.

AAATTATCCA and AAATTCGACG are within error of each other in switch fluorescence ratio: 1.016 ± 0.0092 for the first, 1.05 ± 0.046 for the second.

AAATTTAGGT and AAATTTCATA are within error of each other in switch fluorescence ratio: 1.01 ± 0.038 for the first, 1.03 ± 0.01 for the second.

AAATTTGGTG and AAATTTTAGG are within error of each other in switch fluorescence ratio: 1.14 ± 0.14 for the first, 1.034 ± 0.0013 for the second.

AAATTTTTAG and AAATTTTTGC are within error of each other in switch fluorescence ratio: 1.02 ± 0.018 for the first, 1.05 ± 0.015 for the second.

Compared with AAATTTTTGT, AACAAACGGT is higher in switch fluorescence ratio: 1.001 ± 0.0065 for the first, 1.36 ± 0.057 for the second.

AACAAATGGG and AACAAGGGGA are within error of each other in switch fluorescence ratio: 1.02 ± 0.052 for the first, 1.07 ± 0.067 for the second.

AACAAGTATG and AACAATTATA are within error of each other in switch fluorescence ratio: 1 ± 0.044 for the first, 1.011 ± 0.0078 for the second.

AACACGGCTG and AACACTGATT are within error of each other in switch fluorescence ratio: 1.05 ± 0.027 for the first, 1.04 ± 0.026 for the second.
